From PMC3828522 (Genes & Development, 2013)
Where a chain is given by its changes, count along the chain named. Names may count otherwise.

B1: Sfmbt 4MBT domain (Sfmbt 531-980), wild type (domain or fragment, Drosophila melanogaster, UniProt Q9VK33 531-980, looked up)
chain: DPTHSYDWLPRLSKENFNAAPVTCFPHAPGCEVWDNLGVGMKVEVENTDCDSIEVIQPGQTPTSFWVATILEIKGYKALMSYEGFDTDSHDFWVNLCNAEVHSVGWCATRGKPLIPPRTIEHKYKDWKDFLVGRLSGARTLPSNFYNKINDSLQSRFRLGLNLECVDKDRISQVRLATVTKIVGKRLFLRYFDSDDGFWCHEDSPIIHPVGWATTVGHNLAAPQDYLERMLAGREAMIEVHEDDATIELFKMNFTFDEYYSDGKTNSFVEGMKLEAVDPLNLSSICPATVMAVLKFGYMMIRIDSYQPDASGSDWFCYHEKSPCIFPAGFCSVNNISVTPPNGYDSRTFTWEGYLRDTGAVAAGQHLFHRIIPDHGFEVGMSLECADLMDPRLVCVATVARVVGRLLKVHFDGWTDEYDQWLDCESADIYPVGWCVLVNHKLEGPPRVAH
B2: Sfmbt 4MBT S633P/S673P (domain or fragment, Drosophila melanogaster, UniProt Q9VK33 531-980, looked up)
chain: B1 chain with S103P, S143P
B3: L3MBTL2 4MBT domain, human (domain or fragment)
chain: TGQDALVLGFDWGKFLKDHSYKAAPVSCFKHVPLYDQWEDVMKGMKVEVLNSDAVLPSRVYWIASVIQTAGYRVLLRYEGFENDASHDFWCNLGTVDVHPIGWCAINSKILVPPRTIHAKFTDWKGYLMKRLVGSRTLPVDFHIKMVESMKYPFRQGMRLEVVDKSQVSRTRMAVVDTVIGGRLRLLYEDGDSDDDFWCHMWSPLIHPVGWSRRVGHGIKMSERRSDMAHHPTFRKIYCDAVPYLFKKVRAVYTEGGWFEEGMKLEAIDPLNLGNICVATVCKVLLDGYLMICVDGGPSTDGLDWFCYHASSHAIFPATFCQKNDIELTPPKGYEAQTFNWENYLEKTKSKAAPSRLFNMDCPNHGFKVGMKLEAVDLMEPRLICVATVKRVVHRLLSIHFDGWDSEYDQWVDCESPDIYPVGWCELTGYQLQPPVAAEPATPLKAKEATKKKKKQ
B4: MBTD1 4MBT domain, human (domain or fragment)
chain: AKTKAAVSMEGFSWGNYINSNSFIAAPVTCFKHAPMGTCWGDISENVRVEVPNTDCSLPTKVFWIAGIVKLAGYNALLRYEGFENDSGLDFWCNICGSDIHPVGWCAASGKPLVPPRTIQHKYTNWKAFLVKRLTGAKTLPPDFSQKVSESMQYPFKPCMRVEVVDKRHLCRTRVAVVESVIGGRLRLVYEESEDRTDDFWCHMHSPLIHHIGWSRSIGHRFKRSDITKKQDGHFDTPPHLFAKVKEVDQSGEWFKEGMKLEAIDPLNLSTICVATIRKVLADGFLMIGIDGSEAADGSDWFCYHATSPSIFPVGFCEINMIELTPPRGYTKLPFKWFDYLRETGSIAAPVKLFNKDVPNHGFRVGMKLEAVDLMEPRLICVATVTRIIHRLLRIHFDGWEEEYDQWVDCESPDLYPVGWCQLTGYQLQPPASQSSR

Legend:
[1] = biological target: full-length Pho protein (EMSA) (Drosophila melanogaster, UniProt Q8ST83 1-520); assay: native gel or EMSA
[2] = biological target: biotin-Pho spacer peptide (Drosophila melanogaster, UniProt Q8ST83 145-172, biotin (position not given)); assay: SPR
[3] = biological target: biotin-YY1 spacer peptide (human, UniProt P25490 199-228, biotin (position not given)); assay: SPR
Sequence of biotin-YY1 spacer peptide (P25490 199-228): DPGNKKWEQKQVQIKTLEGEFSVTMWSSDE

Sequence of full-length Pho protein (EMSA) (Q8ST83 whole entry): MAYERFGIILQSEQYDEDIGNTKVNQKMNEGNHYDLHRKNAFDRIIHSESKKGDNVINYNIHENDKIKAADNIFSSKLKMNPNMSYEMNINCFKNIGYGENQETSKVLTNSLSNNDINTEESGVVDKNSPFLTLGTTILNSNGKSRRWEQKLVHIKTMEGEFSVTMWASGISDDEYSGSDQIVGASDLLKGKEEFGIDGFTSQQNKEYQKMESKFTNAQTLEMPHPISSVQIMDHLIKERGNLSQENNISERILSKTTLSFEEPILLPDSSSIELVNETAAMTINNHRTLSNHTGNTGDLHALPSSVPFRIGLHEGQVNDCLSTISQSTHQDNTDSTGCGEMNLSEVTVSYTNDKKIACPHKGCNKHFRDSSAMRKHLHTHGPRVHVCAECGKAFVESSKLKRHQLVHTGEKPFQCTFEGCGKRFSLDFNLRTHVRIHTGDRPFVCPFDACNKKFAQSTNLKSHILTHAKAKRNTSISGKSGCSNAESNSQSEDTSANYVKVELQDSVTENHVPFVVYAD
Sequence of biotin-Pho spacer peptide (Q8ST83 145-172): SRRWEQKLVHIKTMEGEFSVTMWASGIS

Binder	fold weaker affinity than the Drosophila complex [3] [fold]	further results
B1	–	binding result [1]: binds
B2	–	fold decrease in binding affinity against the wild type [2]: 2 fold
B3	~50	–
B4	~50	–
